Results taken from paper PMC4936896, “Primate TRIM5 proteins form hexagonal nets on HIV-1 capsids” (eLife, 2016).

B1: chimpanzee TRIM5α (Pan troglodytes) (natural protein, chimpanzee (Pan troglodytes), UniProt Q5D7J1 1-493, looked up)
chain: MASGILVNVKEEVTCPICLELLTQPLSLDCGHSFCQACLTANHKKSMLDKGESSCPVCRISYQPENIRPNRHVANIVEKLREVKLSPEGQKVDHCAHHGEKLLLFCQEDGKVICWLCERSQEHRGHHTFLTEEVAREYQVKLQAALEMLRQKQQEAEELEADIREEKASWKTQIQYDKTNVLADFEQLRDILDWEESNELQNLEKEEEDILKSLTKSETEMVQQTQSVRELISDLERRLQGSVMELLQGVDGVIKRMENVTLKKPETFPKNQRRVFRAPDLKGMLEVFRELTDVRRYWVDVTVAPNNISCAVISEDMRQVSSPKPQIIYGARGTRYQTFMNFNYCTGILGSQSITSGKHYWEVDVSKKSAWILGVCAGFQPDAMCNIEKNENYQPKYGYWVIGLEEGVKCSAFQDGSFHTPSAPFIVPLSVIICPDRVGVFLDYEACTVSFFNITNHGSLIYKFSHCSFSQPVFPYLNPRKCGVPMTLCSPSS
notes: also called TRIM5αcpz
B2: proteolysis-resistant owl monkey TRIMCyp_(K283D,Q287D) (natural protein)
chain: not shown
B3: African green monkey TRIM5α (Chlorocebus pygerythrus) (natural protein, UniProt Q5C8U4 1-515, looked up)
chain: MASGILVNVKEEVTCPICLELLTEPLSLPCGHSLCQACITANHKESMLYKEEERSCPVCRISYQPENIQPNRHVANIVEKLREVKLSPEEGQKVDHCARHGEKLLLFCQEDSKVICWLCERSQEHRGHHTFLMEEVAQEYHVKLQTALEMLRQKQQEAEKLEADIREEKASWKIQIDYDKTNVSADFEQLREILDWEESNELQNLEKEEEDILKSLTKSETEMVQQTQYMRELISDLEHRLQGSMMELLQGVDGIIKRVENMTLKKPKTFHKNQRRVFRAPDLKGMLDMFRELTDVRRYWVDVTLAPNNISHAVIAEDKRQVSYRNPQIMYQSPGSLFGSLTNFSYCTGVPGSQSITSGKLTNFNYCTGVLGSQSITSGKHYWEVDVSKKSAWILGVCAGFQPDATYNIEQNENYQPKYGYWVIGLQEGDKYSVFQDGSSHTPFAPFIVPLSVIICPDRVGVFVDYEACTVSFFNITNHGFLIYKFSQCSFSKPVFPYLNPRKCTVPMTLCSPSS
notes: also called TRIM5α_(AGMpyg); TRIM5_(AGMpyg)
B4: owl monkey TRIMCyp (Aotus trivirgatus) (natural protein)
chain: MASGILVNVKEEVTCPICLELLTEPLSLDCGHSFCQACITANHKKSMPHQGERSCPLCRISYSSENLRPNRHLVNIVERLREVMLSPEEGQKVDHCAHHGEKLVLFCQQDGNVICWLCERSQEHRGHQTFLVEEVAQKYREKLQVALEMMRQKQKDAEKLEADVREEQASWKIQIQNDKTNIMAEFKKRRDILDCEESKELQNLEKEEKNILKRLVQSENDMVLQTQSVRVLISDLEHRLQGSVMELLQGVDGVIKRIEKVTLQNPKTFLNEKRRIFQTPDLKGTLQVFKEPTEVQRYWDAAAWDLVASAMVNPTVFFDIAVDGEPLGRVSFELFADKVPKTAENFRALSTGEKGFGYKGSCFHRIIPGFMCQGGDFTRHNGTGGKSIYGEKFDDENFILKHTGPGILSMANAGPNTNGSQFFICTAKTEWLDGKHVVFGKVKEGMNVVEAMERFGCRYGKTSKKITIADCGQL

Molecular target: the molecule itself
Test: SEC; final gel filtration step, HiLoad 16/600 Superdex 200 in 20 mM CHES, 100 nM ZnCl2, 1 mM TCEP, pH 10.0, 4°C; oligomer judged from retention time

Stoichiometry N, 2:
B1
B2
B3
B4
